The text below walks through data of paper PMC9172573, “Covalent labeling of a chromatin reader domain using proximity-reactive cyclic peptides†” (Chemical Science, 2022).

The target in data set [1] is His6-MBP-PHD3 (PHD3 domain of histone demethylase KDM5A) (UniProt P29375). Nature of the data set: FP.
Data set [2] shares this target. The experiment in a line: fluorescence polarisation; competition: recombinant His6-MBP-PHD3 incubated with the 10mer H3K4me3 tracer (C-terminal fluorescent label), then varying concentrations of the competing peptide; Ki. A general note: In fluorescence polarisation assays a small probe gives low polarisation when free and higher when bound to something large.
Data set [3] deals with recombinant His6-MBP-PHD3 (PHD3 domain of KDM5A) (Homo sapiens, UniProt P29375).
The conditions of data set [4]: oxyguanidino / guanidino side-chain group; cited from earlier work.
Another data set deals with trypsin. Nature of the data set: trypsin stability assay. The conditions noted are these: peptide and trypsin 1:1 w/w, 1x PBS, RT, HPLC. The data set is classed as in vitro ADME. On the procedure: Trypsin stability assay: Peptide and trypsin (1:1 w/w) were mixed in 1x PBS buffer and the resulting mixture was incubated at RT. Proteolysis reactions at a given time point was quenched by adding HCl. The proteolysis process was monitored by subjecting the quenched mixture onto r everse-phase HPLC column monitoring at 2 14 nm [H2O (A):MeCN (B); 5% to 100% solvent B over 23 min].
Fig. S2a: Chromatograms of WT H3K4me3 hexapeptide ( 1) before and after incubation with trypsin ( t = < 5 min).
(1 picture or pasted object on this page, not shown here)

A further data set has as its target T1, PHD3 K1620A (UniProt P29375 1609-1659, K1620A).
T1 sequence: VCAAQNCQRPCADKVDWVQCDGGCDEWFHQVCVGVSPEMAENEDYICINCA
Nature of the data set: FP.

In data set [5] the target is T2, His6-MBP-PHD3 (PHD3 domain of histone demethylase KDM5A) (UniProt P29375 1609-1659).
T2 chain: T1 sequence with A12K
The experiment in a line: FP.

A further data set concerns the target T3, PHD3 K1622A (UniProt P29375 1609-1659, K1622A).
T3 sequence: T1 sequence with A12K, K14A
The experiment in a line: FP.

Data set [6] has as its target T4, PHD3 double mutant K1620A/K1622A (UniProt P29375 1609-1659, K1620A | K1622A).
T4 sequence: T1 sequence with K14A
Nature of the data set: FP.

The target in data set [7] is T2, His6-MBP-PHD3 (PHD3 domain of histone …). The experiment in a line: FP.
Data set [8] has the same target. The experiment in a line: FP.
For data set [9], the target named is T5, His6-MBP-PHD3 (PHD3 domain of histone demethylase KDM5A) (UniProt P29375 1609-1659).
T5 construct: KDM5A, third (C-terminal) PHD finger, PHD3; holds K1620, K1622, W1625, W1635; also called recombinant His6-MBP-PHD3 protein; KDM5A-PHD3; source: recombinant; not shown: His6, N-terminal, kept; MBP, N-terminal, kept
T5 sequence: T1 sequence with A12K
Nature of the data set: fluorescence polarisation; competition: recombinant His6-MBP-PHD3 incubated with the 10mer H3K4me3 tracer (C-terminal fluorescent label), then varying concentrations of the competing peptide; Ki. The conditions noted are these: both partners purified.

Residue numbers refer to the chain shown, from its start. In names and notes the source's numbering stands. Square brackets hold non-standard residues; d marks the D form. Ends that are not written are not given here. Peptide text beside a SMILES is read from it. Lys(Me3) = C[N+](C)(C)CCCC[C@H](N)C(=O)O; fluorescent label = not defined here; Arg(Me) = CNC(=N)NCCC[C@H](N)C(=O)O; Aib = CC(C)(N)C(=O)O; Me3 = trimethyl

Turning to “H3K4me3 6mer peptide 4 (A1 sidechain modified) (from UniProt P68431 2-7)”, the Ki in data set [1] worked out at 12000 nM.

As for “H3K4me3 6mer peptide 8 (R2 replaced with canavanine) (from UniProt P68431 2-7)”, the Ki in data set [2] was 2300 nM.

Consider `C[C@H](N)C(=O)N[C@@H](CCCNC(=N)N)C(=O)N[C@H](C(=O)N[C@@H](CCCC[N+](C)(C)C)C(=O)N[C@@H](CCC(N)=O)C(=O)N[C@@H](C)C(=O)N[C@@H](C)C(=O)N[C@@H](CCCNC(=N)N)C(=O)N[C@@H](CCCCN)C(=O)N[C@@H](CO)C(N)=O)[C@@H](C)O` [T6A], for which, in data set [3], the Ki amounted to 150 ± 47 nM.

In the case of “H3 6mer peptide 14 (K4me3 replaced with homo-arginine) (from UniProt P68431 2-7)”, the Ki in [2] came to 690 nM.

For `NC(N)=NCCCC[C@H](N)C(=O)O` [homo-arginine], the pKa in data set [4] is roughly 12.48.

In the case of `C[C@H](N)C(=O)N[C@@H](CCCNC(=N)N)C(=O)N[C@H](C(=O)N[C@@H](CCCC[N+](C)(C)C)C(=O)N[C@@H](CCC(N)=O)C(=O)N[C@H](C(N)=O)[C@@H](C)O)[C@@H](C)O` [compound 1, ARTK(me3)QT] (H-ART[Lys(Me3)]QT-NH2), the tryptic stability result with trypsin is “highly susceptible to tryptic digestion”.

With `N=C(N)NOCC[C@H](N)C(=O)O` [canavanine], in data set [4], the pKa is given as 7.01.

`C[C@@H](O)[C@H](NC(=O)[C@H](CCC(N)=O)NC(=O)[C@H](CCCC[N+](C)(C)C)NC(=O)[C@@H](NC(=O)[C@H](CCCNC(=N)N)NC(=O)[C@@H]1CCCN1)[C@@H](C)O)C(N)=O` [compound 6] (H-PRT[Lys(Me3)]QT-NH2): the Ki in data set [3] stood at 2700 ± 640 nM.

On to “H3K4me3 6mer peptide 9 (R2 replaced with homo-arginine) (from UniProt P68431 2-7)”, for which, in [2], the Ki was determined as 740 nM.

For the molecule `N=C(N)NCCC[C@H](N)C(=O)O` [arginine], the pKa in [4] is recorded as roughly 12.48.

Regarding `C[C@@H](O)[C@H](NC(=O)[C@H](CCC(N)=O)NC(=O)[C@H](CCCC[N+](C)(C)C)NC(=O)[C@@H](NC(=O)[C@H](CCCNC(=N)N)NC(=O)[C@@H](N)CO)[C@@H](C)O)C(N)=O` [compound 5] (H-SRT[Lys(Me3)]QT-NH2), the Ki in data set [3] was 1700 ± 300 nM.

B1: 10mer H3K4me3 tracer containing a C-terminal fluorescent label (peptide)
peptide: ART[Lys(Me3)]QTARKS-{fluorescent label}
modifications: reading uncertain
Take B1: the Kd is 58 nM with PHD3 K1620A, 83 nM in [5], 160 nM with PHD3 K1622A and 71 nM in data set [6].

B2: 2-aminoisobutyric acid-containing peptide 7 (peptide)
chain: [Aib]RT[Lys(Me3)]QT
B2 came in with a Ki in data set [7] of 310 nM.

B3: H3K4me3 10mer peptide Q5A (peptide)
peptide: ART[Lys(Me3)]ATARKS
In turn, B3 had a Ki in data set [8] of 59 nM.

B4: 7mer (peptide)
chain: ART[Lys(Me3)]QTA
modifications: not fully specified
In the case of B4, the Ki in [8] came to 43 nM.

B5: H3K4me3 6mer peptide 13 (T3V) (peptide)
peptide: ARV[Lys(Me3)]QT
Regarding B5, the affinity in data set [7], expressed as Ki, was 240 nM.

B6: H3 10mer peptide, K4 replaced with Ala (peptide)
peptide: ARTAQTARKS
For B6, the Ki in data set [8] is 30000 nM.

B7: K9A (peptide)
chain: ART[Lys(Me3)]QTARAS
In [8], B7 gave a Ki of 28 nM.

B8: S10A (peptide)
chain: ART[Lys(Me3)]QTARKA
In [8], B8 had a Ki of 12 nM.

B9: N-terminally acetylated H3K4me3 6mer peptide (2) (peptide)
peptide: Ac-ART[Lys(Me3)]QT
In turn, B9 came in with a Ki in data set [7] of 76000 nM.

B10: 9mer (peptide)
chain: ART[Lys(Me3)]QTARK
modifications: not fully specified
For the molecule B10, in data set [8], the Ki was 15 nM.

B11: H3K4me3 6mer peptide 15 (Q5 replaced with tyrosine) (peptide)
peptide: ART[Lys(Me3)]YT
B11: the affinity in data set [7], expressed as Ki, was 440 nM.

B12: hexapeptide ARTK(me3)QT (1) (peptide)
peptide: ARTK(Me3)QT
Take B12: the Ki in data set [9] turned out to be 130 nM.

B13: sulfone cyclopeptide C-20c (peptide, UniProt P68431 2-7, looked up)
peptide: ARTKQC
modifications: not fully specified; Cys at 6; ε-amino group of dimethyllysine 4 stapled to the Cys6 sulfur with 1,2-bis(bromomethyl)benzene, thioether oxidised to the sulfone
notes: Full-length, cleaved form of intermediate C-20; also called series C; source: synthetic peptide, Fmoc-SPPS on Rink amide resin
As to B13, the “fold decrease in binding affinity (against the thioether C-18c, as read)” value in [9] was found to be 5 fold.

B14: R8A (peptide)
chain: ART[Lys(Me3)]QTAAKS
For B14, the affinity in data set [8] corresponds to a Ki of 69 nM.

B15: H3K4me3 6mer peptide 10 (R2 guanidino group monomethylated) (peptide)
peptide: A[Arg(Me)]T[Lys(Me3)]QT
In the case of B15, affinity in data set [7] was put at a Ki of 220 nM.

B16: H3K4me3 10mer peptide, T3 replaced with Ala (peptide)
peptide: ARA[Lys(Me3)]QTARKS
The molecule B16 displayed a Ki in data set [8] of 650 nM.

B17: 4mer (peptide)
chain: ART[Lys(Me3)]
modifications: not fully specified
Regarding B17, the Ki in data set [8] is 2700 nM.

B18: 8mer (peptide)
chain: ART[Lys(Me3)]QTAR
modifications: not fully specified
B18: the Ki in data set [8] amounted to 54 nM.

B19: H3K4me3 10mer peptide, R2 replaced with Ala (peptide)
peptide: AAT[Lys(Me3)]QTARKS
The molecule B19 returned a Ki in data set [8] of 560 nM.

B20: N-terminally methylated H3K4me3 6mer peptide (3) (peptide)
peptide: Me-ART[Lys(Me3)]QT
As to B20, the Ki in data set [7] is 150 nM.

As a reminder, the Ki is a dissociation constant, usually derived from enzyme kinetics or from competition with a known ligand. One may read the pKa as the negative logarithm of the acid dissociation constant. For orientation: Kd means the free concentration of one partner at which half of the binding sites on the other are occupied at equilibrium, for simple one-to-one binding.
